Source: paper PMC7468457

Experiments:
[1] = target: AT1R-Rluc (AngII type 1 receptor fused to Renilla luciferase) (human) (UniProt P30556)
[2] = target: AT1R-Rluc (AngII type 1 receptor fused to Renilla luciferase) (human) (UniProt P30556); remark: listed apart in the source
[3] = target: AT1R-Rluc (AngII type 1 receptor fused to Renilla luciferase) (human) (UniProt P30556); remark: listed apart in the source
[4] = target: AT1R-Rluc (AngII type 1 receptor fused to Renilla luciferase) (human) (UniProt P30556); remark: listed apart in the source
[5] = target: AT1R-Rluc (AngII type 1 receptor fused to Renilla luciferase) (human) (UniProt P30556); remark: listed apart in the source
[6] = target: AT1R-Rluc (AngII type 1 receptor fused to Renilla luciferase) (human) (UniProt P30556); remark: listed apart in the source

Sequence of UniProt P30556 (P30556 whole entry, the tested form may be a part): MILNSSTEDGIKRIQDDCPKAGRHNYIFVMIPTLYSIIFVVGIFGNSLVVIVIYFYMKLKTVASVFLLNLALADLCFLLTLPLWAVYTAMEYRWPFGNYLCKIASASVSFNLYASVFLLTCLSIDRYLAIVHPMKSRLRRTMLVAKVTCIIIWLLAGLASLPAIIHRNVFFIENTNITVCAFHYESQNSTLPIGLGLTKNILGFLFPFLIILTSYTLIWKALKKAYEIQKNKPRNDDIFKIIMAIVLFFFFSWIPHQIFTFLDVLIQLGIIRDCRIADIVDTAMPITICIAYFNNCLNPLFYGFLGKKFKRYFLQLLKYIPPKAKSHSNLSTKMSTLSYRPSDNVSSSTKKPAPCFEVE

Emax of thrombin dose-response, BRET between AT1R-Rluc and Venus-Gαq, PAR1 overexpressed, thrombin alone; 10 nM AngII alone taken as 100% [1]: 211%
Emax of thrombin dose-response, BRET between AT1R-Rluc and Venus-Gαq, PAR1 overexpressed, with 10 nM AngII [1]: 342%
Emax of thrombin dose-response, BRET between AT1R-Rluc and yPET-β-arrestin 2, PAR1 overexpressed, thrombin alone; 10 nM AngII alone taken as 100% [1]: 102%
Emax of thrombin dose-response, BRET between AT1R-Rluc and yPET-β-arrestin 2, PAR1 overexpressed, with 10 nM AngII [1]: 299%
AT1R endosomal trafficking (BRET between AT1R-Rluc and Venus-Rab5), PAR1 overexpressed and co-activated [2]: 45%
AT1R endosomal trafficking (BRET between AT1R-Rluc and Venus-Rab7), PAR1 overexpressed and co-activated [2]: 41%
IP1 production in HEK293 cells coexpressing AT1R-Rluc and PAR1, AngII 10 nM and thrombin 1 U/ml together [3]: 160%
real-time BRET between AT1R-Rluc and Venus-Gαq, PAR1 overexpressed, AngII 10 nM and thrombin 1 U/ml together (% of AngII response) [4]: 207
real-time BRET between AT1R-Rluc and Venus-Gαq, PAR1 overexpressed, thrombin 1 U/ml alone (% of AngII response) [4]: 79
real-time BRET between AT1R-Rluc and yPET-β-arrestin 2, PAR1 overexpressed, AngII 10 nM and thrombin 1 U/ml together (% of AngII response) [4]: 218
real-time BRET between AT1R-Rluc and yPET-β-arrestin 2, PAR1 overexpressed, thrombin 1 U/ml alone (% of AngII response) [4]: 44
sequential real-time BRET between AT1R-Rluc and yPET-β-arrestin 2, PAR1 overexpressed, vehicle then thrombin 1 U/ml (% of AngII response) [5]: 50
BRET increase between AT1R-Rluc and Venus-Gαq by thrombin 1 U/ml with PAR1 overexpression, dose-response to AngII (Figure 1D) (% of AngII response) [6]: 70 to 75
BRET increase between AT1R-Rluc and yPET-β-arrestin 2 by thrombin 1 U/ml with PAR1 overexpression (Figure 1F) (% of AngII response) [6]: 25
B1: PAR1 (untagged protease-activated receptor 1) (receptor)
chain: SFLLRNPNDKYEPFWEDEEKNESGLTEYRLVSINKSSPLQKQLPAFISEDASGYLTSSWLTLFVPSVYTGVFVVSLPLNIMAIVVFILKMKVKKPAVVYMLHLATADVLFVSVLPFKISYYFSGSDWQFGSELCRFVTAAFYCNMYASILLMTVISIDRFLAVVYPMQSLSWRTLGRASFTCLAIWALAIAGVVPLLLKEQTIQVPGLNITTCHDVLNETLLEGYYAYYFSAFSAVFFFVPLIISTVCYVSIIRCLSSSAVANRSKKSRALFLSAAVFCIFIICFGPTNVLLIAHYSFLSHTSTTEAAYFAYLLCVCVSSISCCIDPLIYYYASSECQRYVYSILCCKESSDPSSYNSSGQLMASKMDTCSSNLNNSIYKKLLT
